Data from patent publication US20210393523A1, “AROMATIC RING SUBSTITUTED AMPHIPHILIC POLYMERS AS DRUG DELIVERY SYSTEMS” (Avldea Technologies, Inc., priority 2018, published 2021).
Square brackets hold non-standard residues; d marks the D form. Ends that are not written are not given here. N3‑DBCO = triazole linker from reaction of an azide with DBCO; Lys(N3) = [N-]=[N+]=NCCCC[C@H](N)C(=O)O; Phe(4-NH2) = Nc1ccc(C[C@H](N)C(=O)O)cc1

Legend:
[1] = Particle size and stability by dynamic light scattering; type: physicochemical; conditions: Table 2; S-[B]-H particles
[2] = system: MC38 tumor cells; test: Regression of established MC38 tumors after intratumoral treatment; type: in vivo, C57BL/6 mice; conditions: intratumoral days 11 and 17, 10 and 50 nmol
Description: Tumors were measured by digital callipers for the longest dimension (‘length’) and the distance perpendicular to the length (‘width’), and volume estimated by the formula: <volume=width×width×length/2>. Data are reported as mean±s.e.m in FIGS. 3-5. Tumor regression is noted as soon as 1 day following 50 nmol dose of each S-B-H carrier of TLR-7/8a.

[3] = Particle size and stability by dynamic light scattering; type: physicochemical; conditions: Table 3; peptide-based linear C-B-H; PBS pH 7.4, 0.5 mg/mL
Description: To evaluate particle size and stability, 10 μL of the resulting mixture was diluted with 190 μL PBS, pH 7.4 and the resulting solution was evaluated for turbidity and by dynamic light scattering (DLS).
This reaction scheme was used to prepare different compositions of amphiphilic block copolymers that were characterized for the capacity to form stable nanoparticle micelles in aqueous buffer, PBS pH 7.4, at a concentration of 0.5 mg/mL of amphiphilic block copolymer.
A series of linear amphiphilic block copolymers of formula C-B-H, wherein the charged molecule (C) and spacer (B) comprises peptides, i.e., poly(lysine) and poly(serine-co-glycine), respectively, with varying hydrophobic polymer composition were evaluated for particle size and stability by dynamic light scattering.

| Substance | Size (diameter, nm) [3] | also measured |
| --- | --- | --- |
| EEEEE-(N3-DBCO)-WWWWW (EEEEE[N3‑DBCO]WWWWW) [Compound 23] |  | Particle size (Diameter, nm) [1]: 54.09 nm |
| K7(SG)12×—(N3-DBCO)-Ahx-(F′)20 [Compound 84] |  | Regression of established tumors ([2]; FIG. 4, nanoparticles associated with 2BXy (1 to 4 molar ratio) or covalently linked to 2BXy): promote regression of established tumors |
| KKK-SGSGSGSGSGSGSGSGSGSGSGSG-(Lys(N3-DBCO))-Ahx-(F′)5: peptide-based linear amphiphilic block copolymer (KKKSGSGSGSGSGSGSGSGSGSGSGSGK[Phe(4-NH2)][Phe(4-NH2)][Phe(4-NH2)][Phe(4-NH2)][Phe(4-NH2)]; not fully specified (residue 28); printed as KKK-SGSGSGSGSGSGSGSGSGSGSGSG-(Lys(N3-DBCO))-Ahx-(F′)5; also: Lys joined to F′ block via N3-DBCO-Ahx linkage) | 1013 nm |  |
| KKK-SGSGSGSGSGSGSGSGSGSGSGSG-(Lys(N3-DBCO))-Ahx-(F′)10: peptide-based linear amphiphilic block copolymer (KKKSGSGSGSGSGSGSGSGSGSGSGSGK[Phe(4-NH2)][Phe(4-NH2)][Phe(4-NH2)][Phe(4-NH2)][Phe(4-NH2)][Phe(4-NH2)][Phe(4-NH2)][Phe(4-NH2)][Phe(4-NH2)][Phe(4-NH2)]; not fully specified (residue 28); printed as KKK-SGSGSGSGSGSGSGSGSGSGSGSG-(Lys(N3-DBCO))-Ahx-(F′)10; also: Lys joined to F′ block via N3-DBCO-Ahx linkage) | 3839 nm |  |
| KKK-SLVRX-(N3-DBCO)-WWWWW (KKKSLVR[Lys(N3)]WWWWW; not fully specified (residue 8); printed as KKK-SLVRX-(N3-DBCO)-WWWWW; also: azidolysine joined to Trp block via N3-DBCO linkage) [Compound 22] |  | Particle size (Diameter, nm) [1]: 64.73 nm |
| KKKKKKK-SGSGSGSGSGSGSGSGSGSGSGSG-(Lys(N3-DBCO))-Ahx-(F′)5: peptide-based linear amphiphilic block copolymer (KKKKKKKSGSGSGSGSGSGSGSGSGSGSGSGK[Phe(4-NH2)][Phe(4-NH2)][Phe(4-NH2)][Phe(4-NH2)][Phe(4-NH2)]; not fully specified (residue 32); printed as KKKKKKK-SGSGSGSGSGSGSGSGSGSGSGSG-(Lys(N3-DBCO))-Ahx-(F′)5; also: Lys joined to F′ block via N3-DBCO-Ahx linkage) | 477 nm |  |
| KKKKKKK-SGSGSGSGSGSGSGSGSGSGSGSG-(Lys(N3-DBCO))-Ahx-(F′)20: peptide-based linear amphiphilic block copolymer (KKKKKKKSGSGSGSGSGSGSGSGSGSGSGSGK[Phe(4-NH2)][Phe(4-NH2)][Phe(4-NH2)][Phe(4-NH2)][Phe(4-NH2)][Phe(4-NH2)][Phe(4-NH2)][Phe(4-NH2)][Phe(4-NH2)][Phe(4-NH2)][Phe(4-NH2)][Phe(4-NH2)][Phe(4-NH2)][Phe(4-NH2)][Phe(4-NH2)][Phe(4-NH2)][Phe(4-NH2)][Phe(4-NH2)][Phe(4-NH2)][Phe(4-NH2)]; not fully specified (residue 32); also: Lys joined to F′ block via N3-DBCO-Ahx linkage) | 32 nm |  |
| {OH-PEG24}4-{propargyl}4K2K{Lys(N3)}-DBCO-Ahx-(F′)10 [Compound 80] |  | Regression of established tumors ([2]; FIG. 5, nanoparticles admixed with 2BXy and Doxorubicin at 1 to 4 to 4 molar ratio): promote regression of established tumors |
